# Experimental data taken from publication PMC6863704 (Protein Science : A Publication of the Protein Society, 2019).
# Biological target: the molecule itself
# Experiment: NMR
protein,measurement,value
"p50 dimerization domain of NFκB1 (residues 241–351), long construct with non-native N-terminal extension (domain or fragment, mouse) VGTGSNDDDDKAPNASNLKIVRMDRTAGCVTGGEEIYLLCDKVQKDDIQIRFYEEEENGGVWEGFGDFSPTDVHRQFAIVFKTPKYKDVNITKPASVFVQLRRKSDLETSEPKPFLYYPEI",stoichiometry N,2
